# In PMC9054013, “FCHO controls AP2’s initiating role in endocytosis through a PtdIns(4,5)P2-dependent switch” (Science Advances, 2022):
# T1: Cμ2 (μ2 residues 160 to 435), P84092
# T1 chain: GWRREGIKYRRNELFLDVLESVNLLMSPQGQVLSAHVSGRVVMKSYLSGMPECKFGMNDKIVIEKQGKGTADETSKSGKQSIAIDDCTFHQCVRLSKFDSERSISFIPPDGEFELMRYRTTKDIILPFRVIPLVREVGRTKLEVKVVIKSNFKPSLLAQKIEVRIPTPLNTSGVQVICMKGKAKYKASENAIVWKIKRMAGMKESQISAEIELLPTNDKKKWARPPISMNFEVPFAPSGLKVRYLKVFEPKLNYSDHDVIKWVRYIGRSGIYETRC
# B1: FCHO2-N1+N2 (ITC), Q0JRZ9-1 Y340S (protein)
# chain: NIPDVDEEGYSIKPETNQNDTKENHFSSSSDSDSEDEEPKKYRIEIKPMHPNNSHHTMASLDELKVSIGNITLSPAISRHS
# Molecular target: T1, Cμ2 (μ2 residues 160 to 435), P84092
# Test: ITC
# Settings: chain shown with the change;; parent: 25 ± 1 µM
row,Binder,Kd
1,"NIPDVDAAGYSIAPETNQNDTKENHFYSSSDSDSEDEEPKKYR [FCHO2-N1+N2 (ITC), Q0JRZ9-1 E320A; E321A; K326A]",110 µM
2,B1,54 µM
